According to paper PMC4605301, “hSSB1 (NABP2/ OBFC2B) is required for the repair of 8-oxo-guanine by the hOGG1-mediated base excision repair pathway” (Nucleic Acids Research, 2015):

Columns and labels:
GST-hOGG1 wild type = GST-hOGG1 wild type (human, UniProt O15527 1-345); experiment: cell-based or functional assay
hOGG1 F319A = molecular target: T1, hOGG1 F319A (human, UniProt O15527 1-345, F319A); experiment: pull-down; biotinylated dsDNA with an 8oxoG lesion on Dynabeads M-280 Streptavidin; 2 μg each of hSSB1 and hOGG1 F319A pre-incubated in buffer K with 75 mM KCl at 4°C, then 2 h with beads at 4°C, wash with 100 mM KCl; SDS-PAGE, Coomassie blue; settings: both partners purified
T1 construct: human 8-oxoguanine glycosylase 1 (hOGG1) with F319A, from the pGEX-hOGG1 vector; Mutant defective for 8-oxoG recognition; also called hOGG1 mutant (F319A)
T1 sequence (O15527 whole entry F319A): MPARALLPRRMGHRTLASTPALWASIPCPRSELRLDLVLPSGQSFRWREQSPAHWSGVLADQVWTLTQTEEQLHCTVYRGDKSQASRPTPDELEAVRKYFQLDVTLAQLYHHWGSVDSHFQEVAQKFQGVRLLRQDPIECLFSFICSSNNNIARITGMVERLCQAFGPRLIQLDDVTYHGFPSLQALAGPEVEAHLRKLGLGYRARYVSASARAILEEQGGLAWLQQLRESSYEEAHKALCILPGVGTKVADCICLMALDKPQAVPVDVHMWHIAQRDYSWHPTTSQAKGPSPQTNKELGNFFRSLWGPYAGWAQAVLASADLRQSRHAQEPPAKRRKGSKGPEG

Sequence of GST-hOGG1 wild type (O15527 whole entry): as the sequence (O15527 whole entry F319A) above, with A319F counted along it

B1: recombinant hSSB1 full length, N-terminal (His)6-tag (natural protein, human, UniProt Q9BQ15 1-211, looked up)
chain: MTTETFVKDIKPGLKNLNLIFIVLETGRVTKTKDGHEVRTCKVADKTGSINISVWDDVGNLIQPGDIIRLTKGYASVFKGCLTLYTGRGGDLQKIGEFCMVYSEVPNFSEPNPEYSTQQAPNKAVQNDSNPSASQPTTGPSAASPASENQNGNGLSAPPGPGGGPHPPHTPSHPPSTRITRSQPNHTPAGPPGPSSNPVSNGKETRRSSKR
notes: also called hSSB1 Full length (FL); purified recombinant hSSB1; source: E. coli T7 shuffle strain, purified (Superdex 200)
- 8-oxoG incision activity of 20 nM recombinant hOGG1 on a 22 bp dsDNA with 8-oxoG opposite cytosine, with increasing concentrations of hSSB1 (37°C, 30 min) (GST-hOGG1 wild type): 12 fold
- binding result (hOGG1 F319A): binds
